Data from the supplement of paper PMC10567573.
± gives the standard deviation.

Experiment: protein stability index of a GFP-peptide fusion (GPS, HEK-293T) (PSI 1-6); higher = more stable
Conditions: c terminus: a fixed tail appended
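Further: 24-mer peptide tiles fused after GFP, lentivirally expressed, FACS-sorted into six equal bins by GFP/DsRed ratio, decoded by Illumina sequencing, PSI is the read-weighted mean bin number.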

Sequence | protein stability index (treatment: DMSO) | protein stability index (treatment: MLN4924 1 uM, 8 h)
RLTSQDWERVHLIVAGGYDERVLE [ALG2] | 3.06 ± 0.28 | 3.21 ± 0.27
NVLSVNLPDNFTLKEDGMETVPWF [TPH1] | 2.75 ± 0.21 | 2.92 ± 0.17
FFAFEHSEEYQQAQHKFLVAVESM [TCF25] | 3.59 ± 0.35 | 3.56 ± 0.4
